Consider one protein from paper doi:10.1101/2023.04.22.537027 (bioRxiv, 2023).

This series concerns the molecule itself. The experiment in a line: crystal structure.

B1: Cdc10_(Δ1-10) (domain or fragment)
chain: SYVGFDTITNQIEHRLLKKGFQFNIMVVGQSGLGKSTLINTLFASHLIDSATGDDISALPVTKTTEMKISTHTLVEDRVRLNINVIDTPGFGDFIDNSKAWEPIVKYIKEQHSQYLRKELTAQRERFITDTRVHAILYFLQPNGKELSRLDVEALKRLTEIANVIPVIGKSDTLTLDERTEFRELIQNEFEKYNFKIYPYDSEELTDEELELNRSVRSIIPFAVVGSENEIEINGETFRGRKTRWSAINVEDINQCDFVYLREFLIRTHLQDLIETTSYIHYEGFRARQLIALKENANSRSSAHMSSNAIQR
For B1, the binding result is recorded as “binds”.
